# Laboratory results reported in article doi:10.1101/2021.02.03.429574 (bioRxiv, 2021).
# B1: plastocyanin (Pisum sativum), reduced (natural protein, Pisum sativum (pea), UniProt P16002 70-168, looked up)
# chain: VEVLLGASDGGLAFVPSSLEVSAGETIVFKNNAGFPHNVVFDEDEIPAGVDASKISMPEEDLLNAPGETYSVKLDAKGTYKFYCSPHQGAGMVGQVTVN
# B2: plastocyanin used with Chlamydomonas reinhardtii PSI (natural protein, UniProt P18068 48-145, looked up)
# chain: DATVKLGADSGALEFVPKTLTIKSGETVNFVNNAGFPHNIVFDEDAIPSGVNADAISRDDYLNAPGETYSVKLTAAGEYGYYCEPHQGAGMVGKIIVQ
# Key:
# [1] = target: PsaB (Pisum sativum photosystem I) (Pisum sativum (pea), UniProt P05311 13-734); assay: cryo-EM structure
# [2] = target: PsaA (Pisum sativum photosystem I) (Pisum sativum (pea), UniProt P05310 16-758); assay: cryo-EM structure
# [3] = target: photosystem I of Chlamydomonas reinhardtii, wild type (Chlamydomonas reinhardtii, UniProt P12154 1-751; P09144 1-735; P12356 63-227); assay: flash-induced absorbance transients at 817 nm
# Chain of PsaA (Pisum sativum photosystem I) (P05310 16-758): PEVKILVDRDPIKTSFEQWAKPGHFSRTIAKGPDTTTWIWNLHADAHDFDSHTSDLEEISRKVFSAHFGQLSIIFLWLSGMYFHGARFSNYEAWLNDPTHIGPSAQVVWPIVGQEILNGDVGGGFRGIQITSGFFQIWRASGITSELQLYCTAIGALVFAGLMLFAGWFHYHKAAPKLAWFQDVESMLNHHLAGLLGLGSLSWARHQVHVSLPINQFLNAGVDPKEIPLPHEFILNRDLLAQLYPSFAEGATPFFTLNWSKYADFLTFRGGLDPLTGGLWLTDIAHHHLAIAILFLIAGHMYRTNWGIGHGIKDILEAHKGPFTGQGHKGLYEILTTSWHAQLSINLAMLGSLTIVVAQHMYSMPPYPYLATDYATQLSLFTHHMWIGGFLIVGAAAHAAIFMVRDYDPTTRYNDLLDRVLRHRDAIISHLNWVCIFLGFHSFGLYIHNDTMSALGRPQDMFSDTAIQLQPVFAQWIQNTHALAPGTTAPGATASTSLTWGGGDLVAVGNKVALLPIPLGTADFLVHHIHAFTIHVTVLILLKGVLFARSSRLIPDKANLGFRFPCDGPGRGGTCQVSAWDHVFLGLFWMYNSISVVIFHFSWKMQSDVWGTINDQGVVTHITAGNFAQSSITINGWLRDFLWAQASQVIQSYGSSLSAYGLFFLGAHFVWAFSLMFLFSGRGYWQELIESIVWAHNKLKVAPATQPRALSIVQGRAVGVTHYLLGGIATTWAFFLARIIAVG
# Chain of PsaB (Pisum sativum photosystem I) (P05311 13-734): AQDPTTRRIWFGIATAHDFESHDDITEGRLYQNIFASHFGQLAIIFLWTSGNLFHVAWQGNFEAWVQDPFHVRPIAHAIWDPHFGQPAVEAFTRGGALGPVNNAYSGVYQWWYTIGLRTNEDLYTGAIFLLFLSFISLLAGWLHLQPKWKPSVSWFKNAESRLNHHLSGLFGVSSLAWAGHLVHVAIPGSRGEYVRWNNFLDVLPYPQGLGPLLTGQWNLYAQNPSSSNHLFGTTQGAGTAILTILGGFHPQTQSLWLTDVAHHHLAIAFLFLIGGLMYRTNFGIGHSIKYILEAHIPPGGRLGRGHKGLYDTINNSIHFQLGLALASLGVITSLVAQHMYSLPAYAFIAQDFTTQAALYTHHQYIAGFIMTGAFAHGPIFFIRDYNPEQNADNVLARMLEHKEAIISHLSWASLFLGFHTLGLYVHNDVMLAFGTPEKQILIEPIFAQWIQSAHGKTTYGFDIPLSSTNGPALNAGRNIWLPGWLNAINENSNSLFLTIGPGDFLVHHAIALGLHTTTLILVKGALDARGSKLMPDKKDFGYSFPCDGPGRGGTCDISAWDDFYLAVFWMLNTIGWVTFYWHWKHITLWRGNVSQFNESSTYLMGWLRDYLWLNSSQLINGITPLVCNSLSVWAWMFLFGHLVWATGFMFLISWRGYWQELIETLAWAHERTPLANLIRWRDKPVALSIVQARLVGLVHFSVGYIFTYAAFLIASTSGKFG
Binder,binding result [1],binding result [2],Kd [3] [µM]
B1,binds,binds,
B2,,,88
